Measured values taken from PMC2788227 (PLoS ONE, 2009).

Columns and labels:
[1] = tested on: NC(=O)C1=CN([C@@H]2O[C@H](COP(=O)(O)OP(=O)(O)OC[C@H]3O[C@@H](n4cnc5c(N)ncnc54)[C@H](OP(=O)(O)O)[C@@H]3O)[C@@H](O)[C@H]2O)C=CC1; test: purified protein; conditions: pH 7.8; 22.0 °C; varied: cofactor
[2] = tested on: CC(=O)[C@@H](O)[C@H](O)COP(=O)(O)O; test: purified protein; conditions: pH 7.8; 22.0 °C

## F. tularensis MEP synthase (IspC; 1-deoxy-D-xylulose 5-phosphate reductoisomerase) (Francisella tularensis subsp. holarctica LVS)
[1]
  Km: 13.3 ± 1.5 µM
[2]
  Km: 103.7 ± 12.1 µM
